In article PMC8080847:

Experiments:
[1] = molecular target: EGFR on Cos7 cells (African green monkey (endogenous in Cos7)); test: single-molecule diffusional mobility shift assay (smDIMSA); living Cos7 cells treated with EGF and pertuzumab; EGFR bait labelled with Fab-Alexa Fluor 647, tracked before and after the anti-ErbB2 antibody
[2] = molecular target: EGFR on Cos7 cells (African green monkey (endogenous in Cos7)); test: single-molecule diffusional mobility shift assay (smDIMSA); living Cos7 cells treated with EGF, no pertuzumab (mock); EGFR bait labelled with Fab-Alexa Fluor 647, tracked before and after the anti-ErbB2 antibody
[3] = molecular target: mEos3.2-CD86 (CD86 truncated at R227) (UniProt P42081); test: single-molecule diffusional mobility shift assay (smDIMSA); homodimer format on living HeLa cells: receptor partially labelled with the Alexa Fluor 647 Fab (20 nM, 15 min) of a monoclonal antibody, tracked before and after 15 min with the same full-length antibody; 37 °C; peak shift averaged from multiple cells

Substance	diffusion coefficient shift (EGF-treated cells, with pertuzumab) [1] [%]	diffusion coefficient shift (EGF-treated cells) [2] [%]	peak shift of the diffusion coefficient [3] [%]
ErbB2 on Cos7 cells (receptor)	6	12	–
mEos3.2-CD86 (CD86 truncated at R227) (from UniProt P42081 24-227) (receptor)	–	–	< 1
